Experimental data as given in patent US20220315554A1, “COMPOUNDS COMPRISING A […] LIGAND AND USE THEREOF” (priority 2019, published 2022).

Experiments:
[1] = molecular target: Ataxin3 (Homo sapiens (Human)) (UniProt P54252)
[2] = molecular target: Ubiquitin carboxy-terminal hydrolase L1 (Homo sapiens (Human)) (UniProt P09936)
[3] = molecular target: Cathepsin S (Homo sapiens (Human)) (UniProt P25774)
[4] = molecular target: Beta secretase (Homo sapiens (Human)) (UniProt P56817)
[5] = molecular target: T1, Renin (Homo sapiens (Human)) (UniProt P00797)
T1 sequence: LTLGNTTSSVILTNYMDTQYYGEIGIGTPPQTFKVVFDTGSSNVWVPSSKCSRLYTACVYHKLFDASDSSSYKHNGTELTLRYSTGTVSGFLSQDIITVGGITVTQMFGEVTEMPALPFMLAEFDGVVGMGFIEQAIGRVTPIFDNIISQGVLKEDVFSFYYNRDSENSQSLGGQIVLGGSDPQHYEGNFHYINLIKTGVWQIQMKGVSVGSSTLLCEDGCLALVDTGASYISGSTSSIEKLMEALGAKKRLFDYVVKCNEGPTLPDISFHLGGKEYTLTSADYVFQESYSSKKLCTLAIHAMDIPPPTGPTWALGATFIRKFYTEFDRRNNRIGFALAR

[6] = molecular target: DPP8 (Homo sapiens (Human)) (UniProt Q6V1X1)
[7] = molecular target: T2, Ubiquitin carboxy-terminal hydrolase L3 (Homo sapiens (Human)) (UniProt P15374)
T2 sequence: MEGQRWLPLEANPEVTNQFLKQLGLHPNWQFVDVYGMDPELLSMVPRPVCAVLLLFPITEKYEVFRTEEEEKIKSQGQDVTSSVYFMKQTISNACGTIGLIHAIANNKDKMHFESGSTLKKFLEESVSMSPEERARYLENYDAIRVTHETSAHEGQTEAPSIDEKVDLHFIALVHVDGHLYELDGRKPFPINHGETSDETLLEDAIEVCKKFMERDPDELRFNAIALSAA

[8] = molecular target: Matrix metalloprotease 9 (mutant Q279R) (Homo sapiens (Human)) (UniProt P14780)
[9] = molecular target: Ubiquitin carboxy-terminal hydrolase 5 (Homo sapiens (Human)) (UniProt P45974)
[10] = molecular target: T3, Caspase-3 (Homo sapiens (Human)) (UniProt P42574)
T3 sequence: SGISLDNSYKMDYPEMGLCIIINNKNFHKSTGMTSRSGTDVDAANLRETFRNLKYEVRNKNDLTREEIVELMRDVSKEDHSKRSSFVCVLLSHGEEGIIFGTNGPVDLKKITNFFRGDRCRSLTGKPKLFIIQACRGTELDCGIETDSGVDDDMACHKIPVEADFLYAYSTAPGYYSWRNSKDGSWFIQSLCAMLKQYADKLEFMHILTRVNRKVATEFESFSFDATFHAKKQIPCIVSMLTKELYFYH

[11] = molecular target: T4, Cathepsin F (Homo sapiens (Human)) (UniProt Q9UBX1)
T4 sequence: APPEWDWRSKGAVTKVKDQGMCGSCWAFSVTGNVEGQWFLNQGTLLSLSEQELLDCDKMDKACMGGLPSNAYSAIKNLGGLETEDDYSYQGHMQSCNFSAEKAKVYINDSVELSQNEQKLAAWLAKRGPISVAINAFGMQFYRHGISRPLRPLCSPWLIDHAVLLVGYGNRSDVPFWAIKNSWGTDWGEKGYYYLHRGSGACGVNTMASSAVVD

[12] = molecular target: T5, Caspase-6 (Homo sapiens (Human)) (UniProt P55212)
T5 sequence: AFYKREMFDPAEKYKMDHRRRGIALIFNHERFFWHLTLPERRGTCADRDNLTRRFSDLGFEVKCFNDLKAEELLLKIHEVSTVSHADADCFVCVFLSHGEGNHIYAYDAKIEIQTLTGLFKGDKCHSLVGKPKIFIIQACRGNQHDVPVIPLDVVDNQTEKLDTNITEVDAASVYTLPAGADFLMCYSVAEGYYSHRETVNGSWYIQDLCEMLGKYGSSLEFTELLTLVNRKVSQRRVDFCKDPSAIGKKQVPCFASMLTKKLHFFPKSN

[13] = molecular target: T6, Caspase-7 (Homo sapiens (Human)) (UniProt P55210)
T6 sequence: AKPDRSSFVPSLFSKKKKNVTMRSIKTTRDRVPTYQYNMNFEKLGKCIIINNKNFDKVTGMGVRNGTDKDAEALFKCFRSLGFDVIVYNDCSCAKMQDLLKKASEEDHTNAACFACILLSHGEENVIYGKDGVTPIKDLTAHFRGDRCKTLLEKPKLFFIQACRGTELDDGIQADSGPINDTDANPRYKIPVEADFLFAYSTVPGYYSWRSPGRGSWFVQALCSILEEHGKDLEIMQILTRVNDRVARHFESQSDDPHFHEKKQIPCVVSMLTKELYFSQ

[14] = molecular target: DPP7 (Homo sapiens (Human)) (UniProt Q9UHL4)
[15] = molecular target: Activated Protein C (Homo sapiens (Human)) (UniProt P04070)
[16] = molecular target: Cathepsin B (Homo sapiens (Human)) (UniProt P07858)
[17] = molecular target: Cathepsin V (Homo sapiens (Human)) (UniProt O60911)
[18] = molecular target: Caspase-9 (Homo sapiens (Human)) (UniProt P55211)
[19] = molecular target: Matrix metalloprotease 2 (Homo sapiens (Human)) (UniProt P08253)
[20] = molecular target: Ubiquitin carboxy-terminal hydrolase 14 (Homo sapiens (Human)) (UniProt P54578)
[21] = molecular target: FAP (Homo sapiens (Human)) (UniProt Q12884)
[22] = molecular target: T7, Ubiquitin carboxy-terminal hydrolase 2 (Homo sapiens (Human)) (UniProt O75604)
T7 sequence: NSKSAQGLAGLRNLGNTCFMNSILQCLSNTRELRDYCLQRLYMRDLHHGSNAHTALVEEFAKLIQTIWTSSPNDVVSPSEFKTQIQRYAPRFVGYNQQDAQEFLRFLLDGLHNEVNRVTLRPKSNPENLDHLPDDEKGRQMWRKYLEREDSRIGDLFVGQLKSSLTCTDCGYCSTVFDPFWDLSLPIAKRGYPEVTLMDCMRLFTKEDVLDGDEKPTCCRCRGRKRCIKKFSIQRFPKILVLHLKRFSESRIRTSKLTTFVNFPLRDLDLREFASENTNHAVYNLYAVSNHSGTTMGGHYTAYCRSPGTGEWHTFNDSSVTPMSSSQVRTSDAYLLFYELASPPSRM

[23] = molecular target: Ubiquitin carboxy-terminal hydrolase 7 (Homo sapiens (Human)) (UniProt Q93009)
[24] = molecular target: DPP9 (Homo sapiens (Human)) (UniProt Q86TI2)
[25] = molecular target: Caspase-8 (Homo sapiens (Human)) (UniProt Q14790)
Caspase-8 (Homo sapiens (Human)), sequence (Q14790 217-479 limits assumed): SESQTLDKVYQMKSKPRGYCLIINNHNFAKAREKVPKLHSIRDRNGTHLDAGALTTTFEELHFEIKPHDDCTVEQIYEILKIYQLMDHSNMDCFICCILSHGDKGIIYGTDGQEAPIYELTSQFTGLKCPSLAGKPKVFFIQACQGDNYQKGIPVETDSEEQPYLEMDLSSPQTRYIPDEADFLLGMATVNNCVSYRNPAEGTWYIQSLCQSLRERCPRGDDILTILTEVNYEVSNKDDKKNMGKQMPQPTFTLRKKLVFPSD

Activated Protein C (Homo sapiens (Human)), sequence (P04070 43-461): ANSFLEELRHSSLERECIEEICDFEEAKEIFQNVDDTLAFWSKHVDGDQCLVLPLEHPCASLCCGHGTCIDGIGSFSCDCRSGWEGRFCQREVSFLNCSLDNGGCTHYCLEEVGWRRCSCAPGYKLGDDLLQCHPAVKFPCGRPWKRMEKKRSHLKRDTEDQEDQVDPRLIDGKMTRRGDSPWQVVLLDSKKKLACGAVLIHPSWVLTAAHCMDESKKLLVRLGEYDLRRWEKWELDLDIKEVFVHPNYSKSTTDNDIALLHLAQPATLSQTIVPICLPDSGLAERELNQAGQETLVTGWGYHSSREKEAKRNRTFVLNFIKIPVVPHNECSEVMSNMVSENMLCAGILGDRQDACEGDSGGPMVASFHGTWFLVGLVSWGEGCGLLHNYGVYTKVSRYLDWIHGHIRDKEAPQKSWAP
FAP (Homo sapiens (Human)), sequence (Q12884 26-760 limits assumed): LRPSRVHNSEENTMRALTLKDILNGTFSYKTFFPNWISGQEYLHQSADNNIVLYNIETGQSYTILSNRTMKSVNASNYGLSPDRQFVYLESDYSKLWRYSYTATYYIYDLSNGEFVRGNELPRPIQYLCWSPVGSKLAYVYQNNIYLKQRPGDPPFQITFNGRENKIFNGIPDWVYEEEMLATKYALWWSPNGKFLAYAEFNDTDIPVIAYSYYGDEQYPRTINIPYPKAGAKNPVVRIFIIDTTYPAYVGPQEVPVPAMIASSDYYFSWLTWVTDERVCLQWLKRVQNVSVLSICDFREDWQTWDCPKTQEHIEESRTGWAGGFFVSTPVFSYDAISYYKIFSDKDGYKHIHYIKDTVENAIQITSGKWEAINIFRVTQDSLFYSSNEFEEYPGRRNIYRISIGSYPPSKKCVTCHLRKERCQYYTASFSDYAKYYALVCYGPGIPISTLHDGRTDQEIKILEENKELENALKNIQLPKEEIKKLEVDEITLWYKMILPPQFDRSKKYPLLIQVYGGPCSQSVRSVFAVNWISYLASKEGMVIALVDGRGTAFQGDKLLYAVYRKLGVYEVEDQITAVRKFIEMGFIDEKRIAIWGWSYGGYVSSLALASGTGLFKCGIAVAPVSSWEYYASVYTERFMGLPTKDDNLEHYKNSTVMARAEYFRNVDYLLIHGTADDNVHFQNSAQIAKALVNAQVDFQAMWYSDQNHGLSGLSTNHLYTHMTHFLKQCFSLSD
Ataxin3 (Homo sapiens (Human)), sequence (P54252 whole entry): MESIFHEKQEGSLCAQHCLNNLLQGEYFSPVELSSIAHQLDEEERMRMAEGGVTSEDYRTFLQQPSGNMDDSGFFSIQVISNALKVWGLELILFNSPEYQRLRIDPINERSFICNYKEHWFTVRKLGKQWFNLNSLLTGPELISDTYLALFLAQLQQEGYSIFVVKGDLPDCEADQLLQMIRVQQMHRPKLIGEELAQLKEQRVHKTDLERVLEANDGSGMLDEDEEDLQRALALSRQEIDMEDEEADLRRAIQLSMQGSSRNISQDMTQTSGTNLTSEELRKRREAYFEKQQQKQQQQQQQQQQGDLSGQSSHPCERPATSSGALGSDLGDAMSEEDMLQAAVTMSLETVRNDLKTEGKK
Ubiquitin carboxy-terminal hydrolase 5 (Homo sapiens (Human)), sequence (P45974 whole entry): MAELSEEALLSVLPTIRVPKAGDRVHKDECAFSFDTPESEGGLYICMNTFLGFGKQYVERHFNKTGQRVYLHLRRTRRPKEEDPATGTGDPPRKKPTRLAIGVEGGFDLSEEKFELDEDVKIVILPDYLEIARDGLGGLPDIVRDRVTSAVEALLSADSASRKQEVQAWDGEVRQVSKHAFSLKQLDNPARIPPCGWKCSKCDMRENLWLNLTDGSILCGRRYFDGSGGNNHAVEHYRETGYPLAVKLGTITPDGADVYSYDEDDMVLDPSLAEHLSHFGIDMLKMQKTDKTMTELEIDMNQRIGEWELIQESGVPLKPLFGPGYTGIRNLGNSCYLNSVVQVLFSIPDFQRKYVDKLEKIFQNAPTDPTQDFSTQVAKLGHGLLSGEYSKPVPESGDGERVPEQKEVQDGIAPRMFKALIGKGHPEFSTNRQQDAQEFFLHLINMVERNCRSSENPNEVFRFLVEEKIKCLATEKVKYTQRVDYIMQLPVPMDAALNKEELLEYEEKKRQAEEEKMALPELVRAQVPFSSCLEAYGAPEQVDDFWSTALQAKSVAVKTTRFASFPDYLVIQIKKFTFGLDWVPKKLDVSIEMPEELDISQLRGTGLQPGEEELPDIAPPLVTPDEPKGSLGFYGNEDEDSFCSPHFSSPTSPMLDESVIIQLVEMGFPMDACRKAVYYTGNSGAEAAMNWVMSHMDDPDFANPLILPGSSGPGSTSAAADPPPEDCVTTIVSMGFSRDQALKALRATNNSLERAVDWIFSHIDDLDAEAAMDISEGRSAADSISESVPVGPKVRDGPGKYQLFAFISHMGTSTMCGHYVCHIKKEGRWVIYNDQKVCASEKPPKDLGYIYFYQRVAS
Caspase-9 (Homo sapiens (Human)), sequence (P55211 whole entry): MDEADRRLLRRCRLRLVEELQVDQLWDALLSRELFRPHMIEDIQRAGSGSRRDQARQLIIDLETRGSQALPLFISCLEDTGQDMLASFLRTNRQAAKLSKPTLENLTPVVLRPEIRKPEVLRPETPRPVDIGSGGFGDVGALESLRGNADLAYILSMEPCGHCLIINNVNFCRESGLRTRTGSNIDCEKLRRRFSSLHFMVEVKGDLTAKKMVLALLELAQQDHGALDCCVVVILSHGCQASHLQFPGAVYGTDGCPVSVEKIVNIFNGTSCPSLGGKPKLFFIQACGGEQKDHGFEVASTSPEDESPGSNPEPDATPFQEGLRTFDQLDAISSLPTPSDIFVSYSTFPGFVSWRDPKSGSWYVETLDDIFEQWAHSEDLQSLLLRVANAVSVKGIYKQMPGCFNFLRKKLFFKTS
Matrix metalloprotease 2 (Homo sapiens (Human)), sequence (P08253 110-660): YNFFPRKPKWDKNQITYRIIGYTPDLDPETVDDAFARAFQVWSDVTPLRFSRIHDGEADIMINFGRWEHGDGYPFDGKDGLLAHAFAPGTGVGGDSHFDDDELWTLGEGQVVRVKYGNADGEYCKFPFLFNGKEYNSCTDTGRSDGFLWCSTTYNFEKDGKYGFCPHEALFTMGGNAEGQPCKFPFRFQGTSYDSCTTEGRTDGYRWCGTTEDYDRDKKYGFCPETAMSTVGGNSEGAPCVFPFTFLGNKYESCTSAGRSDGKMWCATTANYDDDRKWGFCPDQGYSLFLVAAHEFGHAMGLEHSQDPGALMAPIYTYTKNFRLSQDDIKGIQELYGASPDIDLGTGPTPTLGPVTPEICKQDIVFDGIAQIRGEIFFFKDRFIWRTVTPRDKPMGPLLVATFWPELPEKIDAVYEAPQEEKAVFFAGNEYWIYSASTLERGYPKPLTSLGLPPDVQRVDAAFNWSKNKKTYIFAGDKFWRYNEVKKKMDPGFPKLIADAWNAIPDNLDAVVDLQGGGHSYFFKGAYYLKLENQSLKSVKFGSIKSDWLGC

| Percentage inhibition (%) at 10 µM [2] [%] | Percentage inhibition (%) at 10 µM [3] [%] | Percentage inhibition (%) at 10 µM [4] [%] | Percentage inhibition (%) at 10 µM [5] [%] | Percentage inhibition (%) at 10 µM [6] [%] | Percentage inhibition (%) at 10 µM [7] [%] | Percentage inhibition (%) at 10 µM [8] [%] | Percentage inhibition (%) at 10 µM [9] [%] | Percentage inhibition (%) at 10 µM [10] [%] | Percentage inhibition (%) at 10 µM [11] [%] | Percentage inhibition (%) at 10 µM [12] [%] | Percentage inhibition (%) at 10 µM [13] [%] | Percentage inhibition (%) at 10 µM [14] [%] | Percentage inhibition (%) at 10 µM [15] [%] | Percentage inhibition (%) at 10 µM [16] [%] | Percentage inhibition (%) at 10 µM [17] [%] | Percentage inhibition (%) at 10 µM [18] [%] | Percentage inhibition (%) at 10 µM [19] [%] | Percentage inhibition (%) at 10 µM [20] [%] | Substance | Percentage inhibition (%) at 10 µM [1] [%] | other results |
| --- | --- | --- | --- | --- | --- | --- | --- | --- | --- | --- | --- | --- | --- | --- | --- | --- | --- | --- | --- | --- | --- |
| 4 | -23 | 7 | -1 | 11 | 0 | 2 | -2 | -1 | -25 | -3 | -7 | -7 | 1 | 2 | -1 | -2 | -2 | 2 | Hex-[Cys(tMeBn(DOTA-AET))-Pro-Pro-Thr-Gln-Phe-Cys]-OH (peptide) | -1 | Percentage inhibition (%) at 1 µM [21]: 97%; Percentage inhibition (%) at 10 µM [22]: -1%; Percentage inhibition (%) at 10 µM [23]: 1%; Percentage inhibition (%) at 10 µM [24]: -5%; Percentage inhibition (%) at 10 µM [25]: -3% |
| 4 | 18 | -5 | 3 | 5 | 14 | 2 | 46 | -2 | -24 | -1 | -3 | -3 | 8 | 36 | -18 | 8 | 3 | 5 | Hex-[Cys(tMeBn(DOTA-PP))-Pro-Pro-Thr-Gln-Phe-Cys]-Asp-NH2 (peptide) | 10 | Percentage inhibition (%) at 1 µM [21]: 98%; Percentage inhibition (%) at 10 µM [22]: 7%; Percentage inhibition (%) at 10 µM [23]: 5%; Percentage inhibition (%) at 10 µM [24]: 0%; Percentage inhibition (%) at 10 µM [25]: 0% |
